# Reference: PMC4726530 (PLoS ONE, 2016)
# B1: GAOR3 (Sulfurisphaera tokodaii str. 7) (protein)
# chain: MYVGQRVKRKEDLKLITGSGRYIDDIEIPGNLYIAILRSSVAHAKLKKIEYSDVLKLNGVYGVITGLTIPVENRPRNFPMAKDEILYMGQPIAAVLAKDRYVAVDALDYISYDYEELPAVIDPEEAINSKVKAIEDYDNIIYKKTYSGGNAEEAYEKSDVKIEEKLVISRVYAAPMEPRGLVVDYQQDRLTVYASTQSPHYMRSFLLSAFGDKVNDIRVIQADVGGAFGSKLFPYPEDYIAVFAALTYKRPVKLVNTRRDDLFSTYHSRGQIHKVKVGASKDGKINSILDDLIIDLGAAWHGTYLADIPATLITGPYDIKNAKVNVFGVLTNKTPLDQYRGAGRPEAAFVYERIMDIVADELKIDPIELRRKNIIQSTPYKNVMGLTYDSGDYNALLTKAESYYREMEQRAEELRRQGKRVGVGLSFYIEQNNFGPWESASVRLLSNGKVEVVIGAAPHGQGTATGIAQIVADELEISIDDVEVTWGDTDKISNAFGTYGSRSLTLAGNAALLASRKLKENIMKLAAQFMKSDVEELQYKDGKVFNPKTGKSMTLKEIAIKVTSNLGGVWRYKAEPTLEATASFGFDNYTFPYGSHIAMVEVTDEGVVKVLDYVAIDDIGVVVNPMLAEGQVHGGVIQGFGETLLEQIVYDNNGNLLTSTFADYLIPSAVESFNMKWFYTEIGKSNAPLPAKGIGEGATIGAPPALIRAIERAIGKRLTALPVKMEELSK
# notes: LMS hetero-trimer; L 730 aa, M 278 aa, S 168 aa; 85 kDa by gel filtration; M-subunit); Putative oxidoreductase iron-sulfur subunit (S-subunit)
# B2: STK23390, molybdo-pyranopterin L-subunit of glyceraldehyde oxidoreductase GAOR2 (natural protein, UniProt Q96Y29 1-706, looked up)
# chain: MYIGKPIKRIEDLRLITGKGAYVDDIELPGTLFVAFVRSKYPHARIKVKKEEGIFTGEDINPGKDFPIATKETTYVGQPIAIVIAKDRYEAYDLIESVEVEYEELDYVLDPEKALEDKVKVHSGLSSNIYYHERWKGGDVEKAFKEADLTISDTLINQRVIASPLETRGALAYFDGNKLTFYSSTQSAHYLRRNLVDFLGFENIRVIQPDVGGAFGSKIIAHPEEYALAKLALMLRKPLKWVPTRTEEFISAGHGRDKKLKFEVAVKKDGTILGIRGTLIANLGAPYPDANDDESGNVKSTVRMLPGIYKIIGADIDAYAVHTNITPTQSYRGAGRPEGIYFIERIVNIVADELGIDQYEIRLKNAIDTLPYTNIFGVTYDSGNVKKLLEIGKKYYDELKKEDGCVGVSSYIEITAFGPWEVARISVKYDGKITLVTGTGPHGQGDATAFAQIAADVLELPIEKIEVRWGDTEIIEDGIGTWGSRTVTIGGSAVLLASQKLKDKLIEIGAKILNADKEEVEYKEGNVTHKKNGNKVTFNEIVKNAFKMGESLDTTAIYNVKQPPTTPYGVHLALVKVDGTGKVFVKKYVAVDDVGTVINPLLAEGQAIGGIVQGMAQALLEGAFFDENGQLLTTNFQDYPIPTAVEIPEKIDWYYEILGKSPHPTGSKGIGEAGAIAATPTIINAVEQCIKKRITKMPVKFEELVS
# notes: STK23390, L-subunit of GAOR2, Sulfolobus tokodaii; Carries Mo-PCD; Cys405 and Cys689 form a disulfide bridge; also called L-subunit of GAOR2; ST23390
# Experiments:
# [1] = target: LMS hetero-trimer unit of GAOR2 (STK23390/STK05620/STK05610) (Sulfolobus tokodaii (endogenous, purified from the cells)); test: SEC; Superdex 200 10/30 gel filtration in buffer II (20 mM Tris-HCl pH 7.5, 0.25 M NaCl), molecular weights estimated against protein standards; oligomer of LMS hetero-trimer units
# [2] = target: LMS hetero-trimer unit of GAOR2 (STK23390/STK05620/STK05610) (Sulfolobus tokodaii (endogenous, purified from the cells)); test: crystal structure; GAOR2 purified from S. tokodaii, 8 mg/mL, sitting drop at 25°C, 0.1 M Na-acetate pH 4.5, 0.2 M CH3COONH4, 15% PEG 4,000; 2.2 Å; one LMS hetero-trimer in the asymmetric unit, (LMS)2 by crystallographic 2-fold symmetry
# [3] = target: T1, GAOR2 (FAD site in M-subunit) (Sulfurisphaera tokodaii, UniProt Q974U9); test: X-ray crystal structure, […] Å; assay type: binding; conditions: bound in M-subunit; co-purified with native enzyme; crystals at pH 4.5
# T1 construct: gene ST0562; same native (LMS)2 complex as P2; M-subunit 278 aa holds FAD; Putative oxidoreductase iron-sulfur subunit (S-subunit)
# T1 sequence (Q974U9 1-278): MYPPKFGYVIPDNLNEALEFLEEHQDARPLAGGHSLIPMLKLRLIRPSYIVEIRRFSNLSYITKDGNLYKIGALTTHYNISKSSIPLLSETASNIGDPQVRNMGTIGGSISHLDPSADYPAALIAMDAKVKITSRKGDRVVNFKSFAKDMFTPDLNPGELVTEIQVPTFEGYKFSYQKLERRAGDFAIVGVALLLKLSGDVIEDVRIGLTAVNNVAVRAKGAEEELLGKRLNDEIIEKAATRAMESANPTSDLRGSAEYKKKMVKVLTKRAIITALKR
# T1 sequence (Q96Y29 1-706 partner): B2 chain
# T1 sequence (Q974V0 1-168 partner): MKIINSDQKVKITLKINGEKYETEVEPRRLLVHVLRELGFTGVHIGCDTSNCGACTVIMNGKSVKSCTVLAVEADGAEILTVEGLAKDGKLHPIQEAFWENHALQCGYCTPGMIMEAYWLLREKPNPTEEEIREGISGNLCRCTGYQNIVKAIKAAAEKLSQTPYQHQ
# [4] = target: LMS hetero-trimer unit of GAOR1 (STK17810/STK17830/STK17820) (Sulfolobus tokodaii (endogenous, purified from the cells)); test: SEC; Superdex 200 10/30 gel filtration in buffer II (20 mM Tris-HCl pH 7.5, 0.25 M NaCl), molecular weights estimated against protein standards; oligomer of LMS hetero-trimer units
# purified protein [5] = substrate: O=C[C@H](O)CO; test: purified protein; conditions: 0.1 mM DCPIP as electron acceptor, 50 mM MOPS-NaOH pH 7.0, 70°C
# purified protein [6] = substrate: O=CC(O)COP(=O)(O)O; test: purified protein; assay type: biochemical, Sulfurisphaera tokodaii; conditions: 2 mM MV as electron acceptor, 50 mM MOPS-NaOH pH 7.0, 80°C
# purified protein [7] = substrate: O=CCc1c[nH]c2ccccc12; test: purified protein; assay type: biochemical, Sulfurisphaera tokodaii; conditions: 2 mM MV as electron acceptor, 50 mM MOPS-NaOH pH 7.0, 80°C
# purified protein [8] = substrate: CC=O; test: purified protein; assay type: biochemical, Sulfurisphaera tokodaii; conditions: 2 mM MV as electron acceptor, 50 mM MOPS-NaOH pH 7.0, 80°C
# [9] = target: the molecule itself; test: crystal structure; GAOR2 purified from S. tokodaii, 8 mg/mL, sitting drop at 25°C, 0.1 M Na-acetate pH 4.5, 0.2 M CH3COONH4, 15% PEG 4,000; 2.2 Å; one LMS hetero-trimer in the asymmetric unit, (LMS)2 by crystallographic 2-fold symmetry
molecule,measurement,setting,value
LMS hetero-trimer unit of GAOR2 (STK23390/STK05620/STK05610) (complex),stoichiometry N,[1],2
same,stoichiometry N,[2],2
Cc1cc2nc3c(=O)[nH]c(=O)nc-3n(C[C@H](O)[C@H](O)[C@H](O)COP(=O)(O)OP(=O)(O)OC[C@H]3O[C@@H](n4cnc5c(N)ncnc54)[C@H](O)[C@@H]3O)c2cc1C [FAD],"X-ray crystal structure, 2.2 Å",[3],"one Mo-PCD (L-subunit), one FAD (M-subunit), two [2Fe-2S] clusters"
LMS hetero-trimer unit of GAOR1 (STK17810/STK17830/STK17820) (complex),stoichiometry N,[4],4
B1,Km,purified protein [5]; enzyme about 70% pure,11 ± 0 µM
same,kcat,purified protein [5]; enzyme about 70% pure,3.58 ± 0.11 s⁻¹
same,Km,purified protein [6]; enzyme about 70% pure,3.5 ± 1.1 µM
same,kcat,purified protein [6]; enzyme about 70% pure,0.43 ± 0.03 s⁻¹
same,Km,purified protein [7]; enzyme about 70% pure,370 ± 390 µM
same,kcat,purified protein [7]; enzyme about 70% pure,3.58 ± 2.49 s⁻¹
B2,Km,purified protein [5],30 ± 9 µM
same,kcat,purified protein [5],50.5 ± 0.05 s⁻¹
same,Km,purified protein [8],1330 ± 20 µM
same,kcat,purified protein [8],3.38 ± 0.02 s⁻¹
same,Km,purified protein [6],85 ± 5 µM
same,kcat,purified protein [6],0.65 ± 0.01 s⁻¹
same,Km,purified protein [7],92 ± 17 µM
same,kcat,purified protein [7],2.77 ± 0.22 s⁻¹
same,stoichiometry N,[9],2
